{"source": "patent US20150079071", "key": {"[1]": {"test_system": "recombinant HSP90β (385903, Calbiochem/EMD Millipore)"}, "[2]": {"biological_target": "heat-shock protein 90β (HSP90β), endogenous, in conditioned medium of SCp2 cells (UniProt P11499)", "sequence (P11499 2-724)": "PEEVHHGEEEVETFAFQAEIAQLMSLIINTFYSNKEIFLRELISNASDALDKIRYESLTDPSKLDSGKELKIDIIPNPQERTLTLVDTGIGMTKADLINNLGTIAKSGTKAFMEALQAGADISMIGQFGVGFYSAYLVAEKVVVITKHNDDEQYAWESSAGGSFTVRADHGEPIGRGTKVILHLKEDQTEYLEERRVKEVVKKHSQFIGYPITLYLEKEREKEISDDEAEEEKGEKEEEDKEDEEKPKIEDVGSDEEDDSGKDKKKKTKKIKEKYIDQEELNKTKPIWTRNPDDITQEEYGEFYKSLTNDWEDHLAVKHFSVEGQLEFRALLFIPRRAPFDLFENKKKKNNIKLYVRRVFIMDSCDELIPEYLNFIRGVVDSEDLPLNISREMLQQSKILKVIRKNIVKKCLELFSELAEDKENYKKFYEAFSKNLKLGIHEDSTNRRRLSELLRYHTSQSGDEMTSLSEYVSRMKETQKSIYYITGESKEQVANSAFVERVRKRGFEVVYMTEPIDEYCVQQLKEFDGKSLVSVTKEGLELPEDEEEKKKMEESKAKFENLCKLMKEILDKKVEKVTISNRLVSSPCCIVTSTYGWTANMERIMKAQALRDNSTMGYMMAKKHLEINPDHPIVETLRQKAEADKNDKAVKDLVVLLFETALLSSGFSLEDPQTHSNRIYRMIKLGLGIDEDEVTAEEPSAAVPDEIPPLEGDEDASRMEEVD"}}, "data": [{"substance": "Flag-tagged full-length human MMP3 (FL)", "values": [{"measurement": "invasion and branching (spatial network) of mammary organoids in 3D Col-1 gels with recombinant HSP90β", "setting": "[1]", "value": "The recombinant HSP90β added extracellularly enabled the secreted MMP3 to induce the most exuberant branched structures"}, {"measurement": "invasion and branching (spatial network) of mammary organoids in 3D Col-1 gels with a function-blocking antibody against HSP90β", "setting": "[2]", "value": "blocking the extracellular HSP90β with inhibitory antibodies added to the medium abolished branching ability in all organoids, including controls"}]}]}
